The source of these data is patent publication US20130243795A1 (Janssen / Centocor, published 2013).

Assay [1] addresses T1, Human CD27, full length on the cell surface (human, UniProt P26842 21-260). Kind of assay: cell-based or functional assay.
Assay [2] has as its target T2, Recombinant human CD27/Fc chimera (R&D Systems, Cat#382-CD) (human, UniProt P26842 20-191).
T2 construct: extracellular domain; bought protein; also called huCD27-Fc; Hu CD27 Fc; Fc part of the bought chimera not given
In words: inhibition of IM-9 (CD70+) cell binding to immobilized CD27/Fc.

For assay [3], the target named is T1, Human CD27, full length on the cell …. In words: cell-based or functional assay. This is another data set of the same source.
The target in assay [4] is T3, Human CD27 ECD, monomeric soluble (construct limits not stated) (human, UniProt P26842 20-191).
T3 construct: extracellular domain; target of the Biacore assays; also called monomeric soluble CD27; CD27-His
T3 sequence (P26842 20-191): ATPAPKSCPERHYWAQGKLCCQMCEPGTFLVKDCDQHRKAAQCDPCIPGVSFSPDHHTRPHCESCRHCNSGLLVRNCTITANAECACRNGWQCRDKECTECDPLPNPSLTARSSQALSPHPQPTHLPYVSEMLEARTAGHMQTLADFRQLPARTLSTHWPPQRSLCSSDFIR
Kind of assay: Biacore SPR; mAb captured via anti-mouse Fc; CD27 ECD as analyte; 25 C.

In assay [5] the target is T4, Human CD27 ECD truncated (ECD 1-121, cleavage site, His6) (human).
T4 construct: also called human CD27 ECD with His Tag; CD27-His
T4 chain: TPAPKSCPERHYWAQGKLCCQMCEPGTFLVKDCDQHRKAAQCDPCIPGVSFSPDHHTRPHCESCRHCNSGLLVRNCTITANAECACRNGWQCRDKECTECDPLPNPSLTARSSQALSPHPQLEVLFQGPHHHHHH
In words: ELISA of culture supernatants; binding to CD27 ECD; signal relative to the parent.

For assay [6], the target named is T1, Human CD27, full length on the cell …. Kind of assay: cell-based or functional assay. The source holds these as a separate data set.
Assay [7] shares this target. Kind of assay: cell-based or functional assay. This is another data set of the same source.
The target in assay [8] is T3, Human CD27 ECD, monomeric soluble …. Kind of assay: Biacore SPR, purified mAb.
For assay [9], the target named is T4, Human CD27 ECD truncated (ECD 1-121, …). Kind of assay: ProteOn SPR; mAb captured via anti-human Fc; CD27 ECD as analyte.
Assay [10] deals with T5, Human CD27 ECD (ECD 1-173, His6) (human, UniProt P26842 21-193, biotinylated on amine residues (NHS-ester) where used biotinylated).
T5 construct: also called biotinylated human CD27 ECD
In words: Fab format, pIX display and binding.

For assay [11], the target named is T4, Human CD27 ECD truncated (ECD 1-121, …). Kind of assay: ProteOn SPR, purified mAb, CD27-His.
The target is the same in assay [12]. In words: ProteOn SPR, purified mAb, CD27-His.
For assay [13], the target named is T1, Human CD27, full length on the cell …. In words: cell-based or functional assay. The source holds these as a separate data set.
The target of assay [14] is T3, Human CD27 ECD, monomeric soluble …. In words: Biacore SPR, purified mAb. This is another data set of the same source.
Assay [15] concerns the target T1, Human CD27, full length on the cell …. Kind of assay: cell-based or functional assay. The source holds these as a separate data set.
In assay [16] the target is T3, Human CD27 ECD, monomeric soluble …. Kind of assay: Biacore SPR, purified mAb, CD27 ECD.

Numbering of substitutions follows the chain as printed. Where two headings read alike, the source gives them in different places.

T2 sequence (P26842 20-191, change not shown): as the sequence (P26842 20-191) above

B1: C2177 (antibody, V domains shown)
VH: QVQLQQSGPELVKPGASVKISCKASGYAFSSSWMNWVKQRPGKGLEWIGRIYPGDGDTNYNGKFKGKATLTADKSSSTAYMQLSSLTSEDSAVYFCARSDYYGDYGFAYWGQGTLVTVSA
VL: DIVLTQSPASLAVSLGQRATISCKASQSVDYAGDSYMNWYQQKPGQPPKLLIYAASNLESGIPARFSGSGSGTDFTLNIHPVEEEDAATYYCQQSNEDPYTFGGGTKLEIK
notes: also called C2177 hybridoma mAb
Consider B1, for which, in assay [1], the “Plasma blast differentiation % Inhibition at 2.5 ug/ml” value stood at 78%, the “T-Cell Proliferation % Inhibition at highest concentration (30 ug/ml)” value (from here on “T-Cell Proliferation % Inhibition”) was 75.4% and the “T-Cell Proliferation - CD4+ Cells IC50” value was 0.245 µg/mL. Also, the IC50 in assay [2] stood at 0.063 µg/mL. Moreover, in [3], the “Agonism at 50 ug/ml (fold-increase in reporter gene signal relative to isotype control)” value was found to be 1.85 fold and the “NF-kB reporter IC50” value came to 0.04 µg/mL. In addition, the Kd in [4] stood at 3.07 nM.

B2: C2192 (antibody, V domains shown)
VH: B1 VH with S99R, D100W, Y101D, Y102G, D104N, G106F, A108D, L115T, V116L, A120S
VL: DIVMTQSHKFMSTSVGDRVSITCMASQDVGTAVAWYQRRPGQSPKLLIYWTSTRHTGVPDRFTGSGSGTDFTLTISNVQSEDLADYFCQQYSSYPLTFGSGTKLEIK
With B2, in [1], the “Plasma blast differentiation % Inhibition at 2.5 ug/ml” value was 74%, the “T-Cell Proliferation % Inhibition” value is 75.7% and the “T-Cell Proliferation - CD4+ Cells IC50” value is 0.445 µg/mL. Also, the IC50 in assay [2] stood at 0.054 µg/mL. Further, in assay [3], the “Agonism at 50 ug/ml (fold-increase in reporter gene signal relative to isotype control)” value turned out to be 5.39 fold and the “NF-kB reporter IC50” value is 0.232 µg/mL. Also, in assay [4], the affinity, expressed as Kd, was 0.21 nM.

B3: M40 (antibody, human IgG1, V domains shown)
VH: B1 VH
VL: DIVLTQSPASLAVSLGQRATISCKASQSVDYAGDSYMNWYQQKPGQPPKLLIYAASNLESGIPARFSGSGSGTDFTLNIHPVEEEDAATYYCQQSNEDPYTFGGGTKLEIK
notes: chimeric; also called C2177 parent; C2177 parent chimera
In the case of B3, the ELISA signal in [5] is 1. In addition, the “NF-kB Assay IC50” value in assay [6] was determined as 0.466 nM. Also, in assay [7], the “NFkB IC50” value is 0.14 nM. Further, in [8], the Kd amounted to 1.24 nM, the koff was determined as 0.00132 s⁻¹ and the kon amounted to 1.06e+06 M⁻¹ s⁻¹. This molecule gave a Kd in [9] of 0.96 nM.

B4: C2186 (antibody, V domains shown)
VH: QVQLQQPGAELVKPGASVKLSCKASGYTFTNYWMNWVKQRPGRGLEWIGRIHPSDSETHYNQNFKSKATLTVDKSSSTAYIQLSSLTSEDSAVYYCARPVLYGDYGFPCWGQGTLVTVSA
VL: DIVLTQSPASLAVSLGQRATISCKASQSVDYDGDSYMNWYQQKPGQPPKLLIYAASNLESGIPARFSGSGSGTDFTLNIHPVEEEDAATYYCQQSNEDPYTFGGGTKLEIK
Take B4: in [1], the “Plasma blast differentiation % Inhibition at 2.5 ug/ml” value amounted to 93%, the “T-Cell Proliferation % Inhibition” value turned out to be 65.3% and the “T-Cell Proliferation - CD4+ Cells IC50” value was 0.775 µg/mL. Moreover, the IC50 in [2] worked out at 0.059 µg/mL. In assay [3], the “Agonism at 50 ug/ml (fold-increase in reporter gene signal relative to isotype control)” value is 2.55 fold and the “NF-kB reporter IC50” value was 0.105 µg/mL. The molecule also had a Kd in [4] of 2.55 nM.

B5: M91 (antibody, human IgG1, V domains shown)
VH: QVQLVESGGGLVKPGGSLRLSCAASGFTFSSYTMSWIRQAPGKGLEWVSYISSGGGNTYYPDSVKGRFTISRDNAKNSLYLQMNSLRAEDTAVYYCARHRGNPFDYWGQGTLVTVSS
VL: DIQMTQSPSSLSASVGDRVTITCRASKSVSTSGYSFMHWYQQKPGKAPKLLIYLASNLESGVPSRFSGSGSGTDFTFTISSLQPEDIATYYCQHSRELPWTFGQGTKVEIK
notes: also called H31/L42; C2191 HFR variant
In the case of B5, the ELISA signal in assay [5] stood at 1.09. Also, in assay [7], the “NFkB IC50” value stood at 0.28 nM. Besides, in [9], binding was put at a Kd of 7.9 nM.

B6: Parent Fab (VH3-23/Vk012 HFR Fab of C2191) (Fab, V domains shown)
VH: B5 VH with Q1E, V5L, K13Q, I37V, A75S, S78T
VL: B5 VL with F77L, I87F
notes: Fab with human CH1 and Ck in the pIX phage display vector; also called H39/L40; parental HFR Fab
For B6, in assay [10], the binding result is reported as “binds”.

B7: M668 (antibody, V domains shown)
VH: QVQLVQSGAEVKKPGASVKVSCKASGYAFSSSWMNWVRQAPGQGLEWMGRIYSGDADTNYAQKFKGRVTMTRDTSTSTVYMELSSLRSEDTAVYYCARSDYYGDYGFAYWGQGTLVTVSS
VL: DIQMTQSPSSLSASVGDRVTITCKASQSVDYAGESFMNWYQQKPGKAPKLLIYAASNLESGVPSRFSGSGSGTDFTLTISSLQPEDFATYYCQQSNEDPYTFGQGTKVEIK
notes: isotype not restated (path 2); also called H255,L266
In [11], B7 registered a Kd of 0.06 nM, a koff of 0.000129 s⁻¹ and a kon of 2.14e+06 M⁻¹ s⁻¹. Moreover, the “fold lower KD against the parental mAb M160” value in assay [12] is around 2 fold.

B8: M55 (VH1-46/Vk012 HFR Fab of C2177) (Fab, V domains shown)
VH: B7 VH with S53P, A56G, A61N, Q62G
VL: B7 VL with E34D, F36Y, V108L
notes: Fab with human CH1 and Ck in the pIX phage display vector; also called H25/L36; parent HFR Fab
As to B8, in [10], the binding result is reported as “binds”.

B9: C2191 (antibody, V domains shown)
VH: EVKLVESGGGLVKPGGSLKLSCAASGFTFSSYTMSWVRQTPEKRLEWVAYISSGGGNTYYPDSVKGRFTISRDNARNTLYLQMSSLRSEDTAMYYCSRHRGNPFDYWGQGTTLTVSS
VL: DIVLTQSPASLAVSLGQRATISCRASKSVSTSGYSFMHWYQQKPGQPPKLLIYLASNLESGVPARFSGSGSGTDFTLNIHPVEEEDAATYYCQHSRELPWTFGGGTKLEIK
notes: also called C2191 hybridoma mAb
As to B9, in assay [1], the “Plasma blast differentiation % Inhibition at 2.5 ug/ml” value worked out at 105%, the “T-Cell Proliferation % Inhibition” value turned out to be 58.3% and the “T-Cell Proliferation - CD4+ Cells IC50” value came out at 0.3 µg/mL. For the same molecule, the IC50 in [2] amounted to 0.059 µg/mL. In addition, in assay [3], the “Agonism at 50 ug/ml (fold-increase in reporter gene signal relative to isotype control)” value was determined as 3.05 fold and the “NF-kB reporter IC50” value came to 0.08 µg/mL. This molecule also had a Kd in assay [4] of 2.62 nM.

B10: M41 (antibody, human IgG1, V domains shown)
VH: B9 VH
VL: B9 VL
notes: chimeric; also called C2191 parent; C2191 parent chimera
In the case of B10, the “NF-kB Assay IC50” value in assay [13] stood at 2.3 nM. The Kd turned out to be 23.7 nM in assay [14], 13.7 nM in assay [16] and 10.3 nM in assay [9]. Also, the koff in assay [14] turned out to be 0.0103 s⁻¹. In [14], this molecule yielded a kon of 435000 M⁻¹ s⁻¹. In addition, in assay [5], the ELISA signal was found to be 1. Besides, the “NFkB IC50” value in [7] amounted to 0.3 nM; in assay [15], 0.045 nM.

B11: M69 (antibody, human IgG1, V domains shown)
VH: EVQLVQSGAEVKKPGESLKISCKGSGYAFSSSWMNWVRQMPGKGLEWMGRIYPGDGDTNYSPSFQGQVTISADKSISTAYLQWSSLKASDTAMYYCARSDYYGDYGFAYWGQGTLVTVSS
VL: DIVMTQSPDSLAVSLGERATINCKASQSVDYAGDSYMNWYQQKPGQPPKLLIYAASNLESGVPDRFSGSGSGTDFTLTISSLQAEDVAVYYCQQSNEDPYTFGQGTKLEIK
notes: also called H28/L35; C2177 HFR variant
Consider B11, for which, in assay [5], the ELISA signal stood at 1.09. The “NFkB IC50” value in assay [7] stood at 0.11 nM. In addition, in assay [9], the Kd is 0.77 nM.

B12: M671 (antibody, V domains shown)
VH: B11 VH with P53S, G56A, S61N, P62Q, S63K, Q65K
VL: B7 VL
notes: isotype not restated (path 2); also called H258,L266
Consider B12, for which, in assay [11], the Kd amounted to 0.039 nM, the koff was determined as 9.73e-05 s⁻¹ and the association rate constant (kon) stood at 2.52e+06 M⁻¹ s⁻¹. Also, the “fold lower KD against the parental mAb M169” value in assay [12] was around 2 fold.
